Data taken from patent publication US6500934 (dated 2002).
Non-standard residues stand in square brackets, D forms with d. No end group written: not given here. Ahx = NCCCCCC(=O)O

Target: bombesin receptor expressed in transfected Xenopus laevis melanophores (plasmid pJG3.6BR)
Assay: cell-based or functional assay

## KKKKKKKKKKKKKKKKKKKK[Ahx]GGGQQRLGNQWAVGHLM-NH2 (ends and bridges not checked) [Bombesin monomer (K(20)-εAhx-GGG-QQRLGNQWAVGHLM)]
  EC50 (t=30 min) of pigment dispersion in melanophores transfected with the bombesin receptor: 110 nM
